The values below come from article PMC11917138, “A naturally occurring standalone TrpB enzyme provides insights into allosteric communication within tryptophan synthase” (Protein Science : A Publication of the Protein Society, 2025).

The target in series [1] is plTrpB‐con, plTrpB with the six LBCA-Res6 residues replaced by consensus residues (Pelodictyon luteolum).
Series [2] deals with plTrpB, tryptophan synthase β subunit (TrpB) from Pelodictyon luteolum (Pelodictyon luteolum). The series is described as follows: activity titration; apparent Kd; varying plTrpA added to 2 μM plTrpB or plTrpB-con, TrpB reaction rate read at 290 nm; 30°C, 50 mM potassium phosphate pH 7.5, 180 mM KCl, 40 μM PLP, 75 mM L-serine, 1 mM indole; hyperbolic fit; duplicates.
For series [3], the target named is plTrpB‐con, plTrpB with the six LBCA-Res6 residues replaced by consensus residues (Pelodictyon luteolum). Described as above.
Series [4] deals with plTrpB, tryptophan synthase β subunit (TrpB) from Pelodictyon luteolum (Pelodictyon luteolum).
For series [5] the target is unchanged. This is another data set of the same source.
The target of series [6] is plTrpB‐con, plTrpB with the six LBCA-Res6 residues replaced by consensus residues (Pelodictyon luteolum). This is another data set of the same source.
The target of series [7] is plTrpB, tryptophan synthase β subunit (TrpB) from Pelodictyon luteolum (Pelodictyon luteolum). The series can be described thus: SEC; analytical SEC, Superdex200 increase 10/300 GL; plTrpA 75 μM, plTrpB or plTrpB-con 50 μM, alone or mixed; 50 mM potassium phosphate pH 7.5, 300 mM KCl, 75 mM L-serine, 25°C. On the technique in general: Size exclusion chromatography separates by hydrodynamic size, large species first.

Substrate in the series “purified protein”: c1ccc2[nH]ccc2c1
The series can be described thus: purified protein. It counts as biochemical, Pelodictyon luteolum. As to conditions: saturating L-serine, 50 mM potassium phosphate pH 7.5, 180 mM KCl, 40 μM PLP, 30°C.

Where [8] appears, read: 1.5-fold molar excess of plTrpA.

Bounds are passed on as bounds.

Turning to “plTrpA, tryptophan synthase α subunit (TrpA) from Pelodictyon luteolum (from UniProt A0A1G7SSP5 1-275) (enzyme)”, in series [1], the fold activation of k cat of plTrpB-con by plTrpA was determined as 23 fold, the fold activation of k cat/K M ^Ind of plTrpB-con by plTrpA was found to be 3.6 fold and the fold activation of k cat/K M ^Ser of plTrpB-con by plTrpA was > 10000 fold. The Kd in series [2] worked out at 8.5 µM. The Kd in series [3] is 9.9 µM. For the same molecule, in series [4], the fold activation of k cat of plTrpB by plTrpA came to 2.7 fold, the fold activation of k cat/K M ^Ind of plTrpB by plTrpA was found to be 1.6 fold and the fold activation of k cat/K M ^Ser of plTrpB by plTrpA is 9.8 fold. For the same molecule, the k cat of the TrpB reaction of plTrpB with a 1.5-fold molar excess of plTrpA, 30°C in series [5] came to 0.93 s⁻¹. For the same molecule, the k cat of the TrpB reaction of plTrpB-con with a 1.5-fold molar excess of plTrpA, 30°C in series [6] is 0.21 s⁻¹.
Broadly, the stoichiometry N is the number of molecules, sites or subunits per partner or assembly. Molecule “plTrpB, tryptophan synthase β subunit (TrpB) from Pelodictyon luteolum (from UniProt A0A1G7SST0 1-406) (enzyme)” yielded a stoichiometry N in series [7] of 2.

B1: plTrpB (Pelodictyon luteolum DSM 273) (protein)
chain: MSTTAYSAPDSAGKFGAFGGRFTPETLMQNAAGLEAEYLKAKSDPEFQRTLEGLLGDYVGRPTPLYHAEGLSGMLGGAEVWLKREDLCHTGAHKINNALGQVLLARRMGKRRVIAETGAGQHGVATATVCALFNLQCVVYMGEEDIRRQAPNVARMKLLGAEVRPVSSGSRTLKDATSEAIRDWMNNPEETFYIIGSVVGMHPYPMIVRDFQAVIGRETRRQILDKAGRLPDVITACIGGGSNAVGMFYDFLPDAGSIELIGVEAAGEGLDRRHAASLTMGSPGVLHGAMTMLLQNEDGQIQEAHSISAGLDYPGVGPEHCHLQELGLVKYTSVTDADALSALRTLAETEGIICALESAHAVRYAITRAPEMAKDKIIIVNLSGRGDKDMGTIMEELNL
notes: full-length, C-terminal His6-tag kept, codon-optimized gene in pET21a, E. coli BL21 Gold (DE3); beta-beta dimer
As usually defined, the Km is the substrate concentration at which the rate is half of its maximum. By kcat is commonly meant the number of substrate molecules converted per active site and unit of time at saturation. The kcat/Km is the second-order rate constant that governs catalysis at low substrate concentration. For B1, in “purified protein” (no plTrpA), the Km amounted to 39 ± 7 µM, the kcat turned out to be 0.35 ± 0.02 s⁻¹ and the kcat/Km is 8970 ± 1720 M⁻¹ s⁻¹.

B2: plTrpA:plTrpB (Pelodictyon luteolum DSM 273) (protein)
chain: MSTTAYSAPDSAGKFGAFGGRFTPETLMQNAAGLEAEYLKAKSDPEFQRTLEGLLGDYVGRPTPLYHAEGLSGMLGGAEVWLKREDLCHTGAHKINNALGQVLLARRMGKRRVIAETGAGQHGVATATVCALFNLQCVVYMGEEDIRRQAPNVARMKLLGAEVRPVSSGSRTLKDATSEAIRDWMNNPEETFYIIGSVVGMHPYPMIVRDFQAVIGRETRRQILDKAGRLPDVITACIGGGSNAVGMFYDFLPDAGSIELIGVEAAGEGLDRRHAASLTMGSPGVLHGAMTMLLQNEDGQIQEAHSISAGLDYPGVGPEHCHLQELGLVKYTSVTDADALSALRTLAETEGIICALESAHAVRYAITRAPEMAKDKIIIVNLSGRGDKDMGTIMEELNL
notes: both full-length with C-terminal His6-tag, E. coli BL21 Gold (DE3); alpha-beta-beta-alpha complex, partly formed; with Tryptophan synthase alpha chain
On to B2, for which, in the series “purified protein” (setting [8]), the Km is 65 ± 7 µM, the kcat stood at 0.93 ± 0.21 s⁻¹ and the kcat/Km amounted to 14300 ± 3510 M⁻¹ s⁻¹.
